Laboratory results reported in patent US20190300618A1 (Merck Sharp & Dohme, published 2019).
Residue numbers refer to the chain shown, from its start. Blank lines part the entries; values can stand above or below the molecule they belong to.

Experiments:
Experiment in all cases: flow cytometry, CHO-K1; sub-column 2 of 2
[1] = biological target: T1, K31A
T1 construct: also called hCD27 K31A
T1 receptor: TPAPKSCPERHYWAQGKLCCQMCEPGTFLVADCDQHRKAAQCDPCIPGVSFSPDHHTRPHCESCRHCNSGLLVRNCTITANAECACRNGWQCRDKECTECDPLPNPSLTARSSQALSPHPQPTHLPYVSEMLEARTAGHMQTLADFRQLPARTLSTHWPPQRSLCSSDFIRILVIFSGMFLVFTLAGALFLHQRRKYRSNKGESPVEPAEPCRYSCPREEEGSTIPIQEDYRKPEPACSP

[2] = biological target: T2, F28A
T2 construct: also called hCD27 F28A
T2 receptor: T1 receptor with F28A, A31K

[3] = biological target: T3, W90A
T3 construct: also called hCD27 W90A
T3 receptor: T1 receptor with A31K, W90A

[4] = biological target: T4, K17A
T4 construct: also called hCD27 K17A
T4 receptor: T1 receptor with K17A, A31K

[5] = biological target: T5, H60A
T5 construct: also called hCD27 H60A
T5 receptor: T1 receptor with A31K, H60A

[6] = biological target: T6, G89A
T6 construct: also called hCD27 G89A
T6 receptor: T1 receptor with A31K, G89A

[7] = biological target: T7, Q15A
T7 construct: also called hCD27 Q15A
T7 receptor: T1 receptor with Q15A, A31K

[8] = biological target: T8, R87A
T8 construct: also called hCD27 R87A
T8 receptor: T1 receptor with A31K, R87A

[9] = biological target: T9, V49A
T9 construct: also called hCD27 V49A
T9 receptor: T1 receptor with A31K, V49A

[10] = biological target: T10, V30A
T10 construct: also called hCD27 V30A
T10 receptor: T1 receptor with V30A, A31K

% of WT hCD27 binding (geo mean FITC) [1]: 138%
% of WT hCD27 binding (geo mean FITC) [2]: 60%
% of WT hCD27 binding (geo mean FITC) [3]: 96.4%
% of WT hCD27 binding (geo mean FITC) [4]: 6.8%
% of WT hCD27 binding (geo mean FITC) [5]: 120%
% of WT hCD27 binding (geo mean FITC) [6]: 81.8%
% of WT hCD27 binding (geo mean FITC) [7]: 7.6%
% of WT hCD27 binding (geo mean FITC) [8]: 108%
% of WT hCD27 binding (geo mean FITC) [9]: 97%
% of WT hCD27 binding (geo mean FITC) [10]: 102%
Molecule: 1A4 (mouse IgG1) (antibody)

% of WT hCD27 binding (geo mean FITC) [1]: 133%
% of WT hCD27 binding (geo mean FITC) [2]: 58.2%
% of WT hCD27 binding (geo mean FITC) [3]: 85.7%
% of WT hCD27 binding (geo mean FITC) [4]: 106%
% of WT hCD27 binding (geo mean FITC) [5]: 126%
% of WT hCD27 binding (geo mean FITC) [6]: 77.5%
% of WT hCD27 binding (geo mean FITC) [7]: 118%
% of WT hCD27 binding (geo mean FITC) [8]: 98.8%
% of WT hCD27 binding (geo mean FITC) [9]: 92.1%
% of WT hCD27 binding (geo mean FITC) [10]: 95.6%
Molecule: 9F4 (mouse IgG2a) (antibody)

% of WT hCD27 binding (geo mean FITC) [1]: 134%
% of WT hCD27 binding (geo mean FITC) [2]: 57.1%
% of WT hCD27 binding (geo mean FITC) [3]: 102%
% of WT hCD27 binding (geo mean FITC) [4]: 126%
% of WT hCD27 binding (geo mean FITC) [5]: 129%
% of WT hCD27 binding (geo mean FITC) [6]: 82.9%
% of WT hCD27 binding (geo mean FITC) [7]: 136%
% of WT hCD27 binding (geo mean FITC) [8]: 111%
% of WT hCD27 binding (geo mean FITC) [9]: 99.8%
% of WT hCD27 binding (geo mean FITC) [10]: 94%
B1: Antibody hCD27.131A (mouse parental 131A) (antibody, V domains shown)
VH: QIQLVQSGPELKKPGETVKISCKASGYTFTNYGMNWVKQAPGKGLKWMGWINTNTGEPTYAEEFKGRFAFSLETSATTAYLQINNLKNEDTATYFCAREGDAMDYWGQGTSVTVSS
VL: QIVLTQSPAIMSASPGEKVTMTCSASSSVSYMHWYQQKSGTSPKRWIYDTSKLASGVPARFSGSGSGTSYSLTISSMEAEDAATYYCQQWNSYPFTFGSGTKLEIK
notes: mouse IgG1; also called mouse hCD27.131A
